Test results taken from the supplement of paper PMC10065799, “High-throughput profiling of sequence recognition by tyrosine kinases and SH2 domains using bacterial peptide display” (eLife, 2023).

system: AncSZ; experiment: phosphorylation enrichment, bacterial display (enrichment ratio); higher = better substrate or ligand; peptides without Tyr show the background
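Also: 11-residue human phosphosite peptides and single-mutation variants displayed on the E. coli surface, counted by deep sequencing, each peptide's frequency after selection divided by its frequency in the unselected input library; frequency after pTyr selection over input frequency; kinase dosed for 20-30% of maximal phosphorylation in three min.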

Sequence | phosphorylation enrichment
VSLEAYCKHKF [RXRA_Y403_A398V_YF] | 0.949
FEGAIYRKDVG [GART_Y417] | 0.645
SEQNNYSRVAN [CWC22_Y797_R794Q] | 0.705
ETWHNYHKFDS [MATR3_Y243_S240W] | 0.7
RRIHRYRGHLW [VHL_Y112_S111R] | 0.563
SRIWVYNHFRC [BRCA2_Y2621_W2626C_YF] | 1.16
TDLAYYLVRKG [ASL_Y376] | 0.963
LTDLRYKVSGL | 0.581
PLDGEYFTHQI [TP53_Y327_L330H] | 4.62
KDKLPYLFDDP [GPX2_Y125_P126L_YF] | 1.23
HKLSFCEFDFE [BTK_Y40_Y40C_YF] | 3.33
NNKKDYYDMYE [SLC26A3_Y526_K521N] | 1.47
LLTALYFISWG [KCNH2_Y780_R784W] | 1.51
YQKDVYNIPPS [NEDD9_Y177_D178N] | 0.81
AAGGRYFGLVG [HARS1_Y363_D364Y_YF] | 0.516
LRSELYFLIAR [PHIP_Y16] | 2.02

target: EPHB1 (UniProt P54762); experiment: as above
Sequence (P54762 whole entry, looked up): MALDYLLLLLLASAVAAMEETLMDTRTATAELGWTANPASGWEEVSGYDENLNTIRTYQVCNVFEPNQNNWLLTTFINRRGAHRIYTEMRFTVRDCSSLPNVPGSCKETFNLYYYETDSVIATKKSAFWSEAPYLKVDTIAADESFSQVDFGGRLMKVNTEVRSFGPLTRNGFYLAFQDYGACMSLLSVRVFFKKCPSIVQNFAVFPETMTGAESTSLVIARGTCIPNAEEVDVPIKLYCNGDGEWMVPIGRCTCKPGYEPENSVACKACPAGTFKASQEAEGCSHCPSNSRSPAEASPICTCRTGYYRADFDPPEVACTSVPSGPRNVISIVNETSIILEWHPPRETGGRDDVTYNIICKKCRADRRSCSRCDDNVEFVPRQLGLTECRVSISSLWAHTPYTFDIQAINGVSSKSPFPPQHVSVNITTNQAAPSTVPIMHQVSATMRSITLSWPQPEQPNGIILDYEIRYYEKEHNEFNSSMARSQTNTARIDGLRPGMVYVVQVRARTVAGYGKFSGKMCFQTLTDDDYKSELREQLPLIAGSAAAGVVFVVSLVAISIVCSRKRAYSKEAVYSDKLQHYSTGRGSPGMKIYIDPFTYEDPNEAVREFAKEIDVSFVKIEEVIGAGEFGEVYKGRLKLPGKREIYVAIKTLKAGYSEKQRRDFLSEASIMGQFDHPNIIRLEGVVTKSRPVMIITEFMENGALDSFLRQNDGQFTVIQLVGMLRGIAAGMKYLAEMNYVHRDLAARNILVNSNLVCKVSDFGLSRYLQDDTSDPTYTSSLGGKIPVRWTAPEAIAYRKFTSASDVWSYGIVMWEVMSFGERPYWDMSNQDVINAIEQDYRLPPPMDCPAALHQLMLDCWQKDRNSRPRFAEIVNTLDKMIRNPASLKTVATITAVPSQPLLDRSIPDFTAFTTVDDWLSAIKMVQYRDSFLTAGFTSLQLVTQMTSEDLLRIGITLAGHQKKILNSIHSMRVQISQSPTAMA

Sequence | phosphorylation enrichment
VSLEAYCKHKF [RXRA_Y403_A398V_YF] | 0.571
FEGAIYRKDVG [GART_Y417] | 0.332
SEQNNYSRVAN [CWC22_Y797_R794Q] | 1.14
ETWHNYHKFDS [MATR3_Y243_S240W] | 0.799
RRIHRYRGHLW [VHL_Y112_S111R] | 0.507
SRIWVYNHFRC [BRCA2_Y2621_W2626C_YF] | 0.638
TDLAYYLVRKG [ASL_Y376] | 0.468
LTDLRYKVSGL | 0.379
PLDGEYFTHQI [TP53_Y327_L330H] | 0.932
KDKLPYLFDDP [GPX2_Y125_P126L_YF] | 0.632
HKLSFCEFDFE [BTK_Y40_Y40C_YF] | 0.934
NNKKDYYDMYE [SLC26A3_Y526_K521N] | 2.03
LLTALYFISWG [KCNH2_Y780_R784W] | 1.04
YQKDVYNIPPS [NEDD9_Y177_D178N] | 0.456
AAGGRYFGLVG [HARS1_Y363_D364Y_YF] | 0.312
LRSELYFLIAR [PHIP_Y16] | 1.54

target: EPHB2 (UniProt P29323); experiment: as above
Sequence (P29323 whole entry, looked up): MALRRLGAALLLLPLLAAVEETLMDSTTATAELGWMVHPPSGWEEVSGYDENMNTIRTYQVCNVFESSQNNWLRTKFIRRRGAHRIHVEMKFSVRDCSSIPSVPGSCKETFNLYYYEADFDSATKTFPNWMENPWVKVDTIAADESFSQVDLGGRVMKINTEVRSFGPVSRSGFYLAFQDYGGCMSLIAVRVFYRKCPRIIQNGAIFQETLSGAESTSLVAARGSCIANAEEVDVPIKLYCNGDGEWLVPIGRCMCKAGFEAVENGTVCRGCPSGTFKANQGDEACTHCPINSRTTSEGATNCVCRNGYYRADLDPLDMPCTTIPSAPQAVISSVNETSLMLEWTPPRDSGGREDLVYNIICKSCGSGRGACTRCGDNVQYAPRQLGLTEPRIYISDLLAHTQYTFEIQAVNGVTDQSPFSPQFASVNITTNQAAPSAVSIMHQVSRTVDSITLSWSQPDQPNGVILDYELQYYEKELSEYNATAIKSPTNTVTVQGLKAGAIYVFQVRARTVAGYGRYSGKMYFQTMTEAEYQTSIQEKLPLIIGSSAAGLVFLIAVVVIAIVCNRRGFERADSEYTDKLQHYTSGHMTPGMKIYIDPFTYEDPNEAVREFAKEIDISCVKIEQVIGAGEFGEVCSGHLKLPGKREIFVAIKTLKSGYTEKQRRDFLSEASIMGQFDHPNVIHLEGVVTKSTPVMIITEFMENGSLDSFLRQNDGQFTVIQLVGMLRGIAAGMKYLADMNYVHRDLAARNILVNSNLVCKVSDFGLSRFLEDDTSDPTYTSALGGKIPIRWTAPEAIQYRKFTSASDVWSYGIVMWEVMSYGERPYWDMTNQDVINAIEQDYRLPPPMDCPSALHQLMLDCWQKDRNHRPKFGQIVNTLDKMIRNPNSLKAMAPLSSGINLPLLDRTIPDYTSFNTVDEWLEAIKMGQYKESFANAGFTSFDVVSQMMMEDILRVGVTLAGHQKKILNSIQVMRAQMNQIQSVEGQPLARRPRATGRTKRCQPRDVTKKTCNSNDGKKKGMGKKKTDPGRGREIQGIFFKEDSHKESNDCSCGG

Sequence | phosphorylation enrichment
VSLEAYCKHKF [RXRA_Y403_A398V_YF] | 0.509
FEGAIYRKDVG [GART_Y417] | 0.312
SEQNNYSRVAN [CWC22_Y797_R794Q] | 0.878
ETWHNYHKFDS [MATR3_Y243_S240W] | 0.605
RRIHRYRGHLW [VHL_Y112_S111R] | 0.445
SRIWVYNHFRC [BRCA2_Y2621_W2626C_YF] | 0.672
TDLAYYLVRKG [ASL_Y376] | 0.629
LTDLRYKVSGL | 0.479
PLDGEYFTHQI [TP53_Y327_L330H] | 1.15
KDKLPYLFDDP [GPX2_Y125_P126L_YF] | 0.515
HKLSFCEFDFE [BTK_Y40_Y40C_YF] | 0.787
NNKKDYYDMYE [SLC26A3_Y526_K521N] | 1.52
LLTALYFISWG [KCNH2_Y780_R784W] | 0.786
YQKDVYNIPPS [NEDD9_Y177_D178N] | 0.532
AAGGRYFGLVG [HARS1_Y363_D364Y_YF] | 0.377
LRSELYFLIAR [PHIP_Y16] | 1.4

target: FGFR1 (UniProt P11362); experiment: as above
Sequence (P11362 whole entry, looked up): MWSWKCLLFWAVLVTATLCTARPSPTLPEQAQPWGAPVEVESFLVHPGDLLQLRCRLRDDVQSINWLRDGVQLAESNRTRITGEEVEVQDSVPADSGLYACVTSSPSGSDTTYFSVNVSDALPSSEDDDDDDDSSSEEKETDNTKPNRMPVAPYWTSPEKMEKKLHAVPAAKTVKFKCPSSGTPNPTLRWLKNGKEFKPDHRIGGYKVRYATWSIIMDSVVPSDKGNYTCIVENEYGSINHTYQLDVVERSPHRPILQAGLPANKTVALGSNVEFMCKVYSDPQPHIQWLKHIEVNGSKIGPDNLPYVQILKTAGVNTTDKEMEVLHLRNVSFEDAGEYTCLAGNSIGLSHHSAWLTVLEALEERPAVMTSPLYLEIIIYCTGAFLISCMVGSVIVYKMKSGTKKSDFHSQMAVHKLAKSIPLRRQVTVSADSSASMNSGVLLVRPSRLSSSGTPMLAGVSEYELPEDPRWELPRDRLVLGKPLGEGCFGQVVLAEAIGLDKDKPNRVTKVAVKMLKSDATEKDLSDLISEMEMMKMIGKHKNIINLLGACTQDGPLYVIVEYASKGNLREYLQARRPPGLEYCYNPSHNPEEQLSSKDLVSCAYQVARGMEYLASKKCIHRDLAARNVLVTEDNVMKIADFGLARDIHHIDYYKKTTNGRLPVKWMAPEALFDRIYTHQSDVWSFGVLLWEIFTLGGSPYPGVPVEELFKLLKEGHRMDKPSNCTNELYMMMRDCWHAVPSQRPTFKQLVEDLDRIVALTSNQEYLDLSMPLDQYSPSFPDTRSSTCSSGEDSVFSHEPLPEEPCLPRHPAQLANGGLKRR

Sequence | phosphorylation enrichment
VSLEAYCKHKF [RXRA_Y403_A398V_YF] | 0.392
FEGAIYRKDVG [GART_Y417] | 0.347
SEQNNYSRVAN [CWC22_Y797_R794Q] | 0.43
ETWHNYHKFDS [MATR3_Y243_S240W] | 0.942
RRIHRYRGHLW [VHL_Y112_S111R] | 0.43
SRIWVYNHFRC [BRCA2_Y2621_W2626C_YF] | 0.575
TDLAYYLVRKG [ASL_Y376] | 3.17
LTDLRYKVSGL | 0.496
PLDGEYFTHQI [TP53_Y327_L330H] | 2.17
KDKLPYLFDDP [GPX2_Y125_P126L_YF] | 0.472
HKLSFCEFDFE [BTK_Y40_Y40C_YF] | 0.844
NNKKDYYDMYE [SLC26A3_Y526_K521N] | 8.57
LLTALYFISWG [KCNH2_Y780_R784W] | 0.847
YQKDVYNIPPS [NEDD9_Y177_D178N] | 0.623
AAGGRYFGLVG [HARS1_Y363_D364Y_YF] | 0.375
LRSELYFLIAR [PHIP_Y16] | 3.06
